Test results: the RNAGym collection of RNA variant scans (doi:10.1073/pnas.2313332121)
This sample holds only a part of the variants without activity.

B1: TPR 5TU (parent)
chain: GGAUCUUCUCGAUCUAACAAAAAAGACAAAUCUGCCACAAAGCUUGAGAGCAUCUUCGGAUGCAGAGGCGGCAGCCUUCGGUGGCGCGAUAGCGCCAACGUUCUCAACUAUGACACGCAAAACGCGUGCUCCGUUGAAUGGAGUUUAUCAUG

Variants of: B1
Test: polymerase ribozyme fitness, log enrichment relative to wild type (log ratio); higher = more active; in vitro selection for triplet polymerase activity
Procedure, shortened: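 Fitness measures genotype enrichment against wild-type enrichment on a logarithmic scale, with inverse-variance-weighted averaging of replicates. The logarithm is base 2, and genotypes were kept only with ≥10 input reads and ≥1 read per output in Illumina sequencing. The sequenced libraries came from one triplicate in vitro selection round, including frozen incubation at −7 °C, of PCR-built, transcribed mutant libraries of each subunit of a heterodimeric triplet polymerase ribozyme.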

| Variant | polymerase ribozyme fitness (log ratio) |
| --- | --- |
| C85U G140A | -3.24 |
| C85U C105U | -0.279 |
| C85U A150C G152U | -3.38 |
| C85U C103U | -2.17 |
| C85G A142C | -2.98 |
| C85A G92U C131G G152C | ≤ -4.2 |
| C85G U90A C114A | ≤ -4.2 |
| C85U A98U G117A | -0.373 |
| C85A U109G C118U | -1.54 |
| C85A C125A A137G | -2.28 |
| C85A G88U C95G A97C | ≤ -4.2 |
| C85G U102G C129U A150C | ≤ -4.2 |
| C85U G141U | 1.07 |
| C85U G141C | -0.765 |
| C85A U127A | -3.68 |
| C85U G86U C93U U130A A138U | ≤ -4.2 |
| C85G C93G | -3.68 |
| C85G G143U | -3.79 |
| C85G A147C | -1.67 |
| C85G A147U | -0.872 |
| C85U G133C | -1.69 |
| C85U G133U | -2.28 |
| C85U C132U | -0.776 |
| C85A C123U | -1.2 |

| Variant | polymerase ribozyme fitness (log ratio) |
| --- | --- |
| C85U C93G A150G | ≤ -4.2 |
| C85U G86C G88A U90G A121U G128A | ≤ -4.2 |
| C85U C116G | -0.942 |
| C85U C116U | -0.233 |
| C85U C96U | -0.746 |
| C85G C116U U144C | -3.36 |
| C85U C129U | -0.359 |
| C85G G94U | -0.835 |
| C85G C99G | -4.1 |
| C85G C99U G112U C118U | ≤ -4.2 |
| C85G A122C | -1.98 |
| C85U C95U G133A | -4 |
| C85U A89U C105G | -1.55 |
| C85U A89U C105U | 0.517 |
| C85A U135C | -2.15 |
| C85A U135A | -0.589 |
| C85A G112U A113C U148G | ≤ -4.2 |
| C85U G94C | -0.28 |
| C85U C99G G126A U135G | ≤ -4.2 |
| C85G U139C G143A | ≤ -4.2 |
| C85G C114U | -3.49 |
| C85U A121C | -0.139 |
| C85G U135C A138C | ≤ -4.2 |
| C85G A119U | -3.69 |

| Variant | polymerase ribozyme fitness (log ratio) |
| --- | --- |
| C85U C87U C108U C114A | ≤ -4.2 |
| C85U C99G G136U | -2.88 |
| C85A G94A | -1.74 |
| C85G C93U C116U U127G | ≤ -4.2 |
| C85U C125G G136A | -0.203 |
| C85G G128C | ≤ -4.2 |
| C85G G141C | -3.06 |
| C85G G94U C118G | -0.928 |
| C85A C125A | -2.27 |
| C85A C125U | -1.7 |
| C85G C118A U146C | -2.72 |
| C85U C116U G141A | -2.95 |
| C85U G88A A98U | -3.79 |
| C85A U135G A137U | ≤ -4.2 |
| C85G G133U | ≤ -4.2 |
| C85A G92U G117U | -2.26 |
| C85G A121G C132U | -2.88 |
| C85U A89G A106G G117A G126C G143C | ≤ -4.2 |
| C85U A142G | -1.38 |
| C85U A91C U102C | ≤ -4.2 |
| C85G G141A C149G | ≤ -4.2 |
| C85G C118U | -3.37 |
| C85U A121U C132A U134A | -4.16 |
| C85G C125A C131A C149U | ≤ -4.2 |

| Variant | polymerase ribozyme fitness (log ratio) |
| --- | --- |
| C85U G126U U139A U144C | -3.59 |
| C85U G136U | -1.83 |
| C85U A115U | -2.38 |
| C85U A115G | -2.3 |
| C85A U134C | -0.169 |
| C85A U134G | -3.6 |
| C85U C114G G128A | ≤ -4.2 |
| C85U C87U | 0.308 |
| C85A G112U | ≤ -4.2 |
| C85G C95A | -1.68 |
| C85A U144A | -0.579 |
| C85A U144G | -0.777 |
| C85A U144C | -0.693 |
| C85A G136C | -4.19 |
| C85G C96U | -2.26 |
| C85G C96G | -3.49 |
| C85A G126C U148A | -4.13 |
| C85U G143A | 0.273 |
| C85G C123G U139A | ≤ -4.2 |
| C85U A89U A110C A121U G136A U146C | ≤ -4.2 |
| C85A G117A A138G | -4.18 |
| C85A G94A G128C | -3.21 |
| C85G C96U C116A A137C | ≤ -4.2 |
| C85U G136U G152C | ≤ -4.2 |

| Variant | polymerase ribozyme fitness (log ratio) |
| --- | --- |
| C85U G94A G152C | -3.09 |
| C85G U144A A150U | -3.7 |
| C85U C125U | -0.156 |
| C85U C125G | -0.638 |
| C85G A98G U144G | -0.337 |
| C85A G94C A121C | -1.84 |
| C85U C95U | -1.72 |
| C85U A91U C95G G140U | ≤ -4.2 |
| C85A C118A | -0.973 |
| C85G C116U | -1.66 |
| C85G U109G U144C | ≤ -4.2 |
| C85A G133U | ≤ -4.2 |
| C85A U145G | -1.06 |
| C85G A97G A150U | -2.03 |
| C85U C96U A98G A150G | -2.21 |
| C85G G92U G136A G141A | -3.06 |
| C85A U139C U145C | ≤ -4.2 |
| C85A U148C | -2.22 |
| C85A U148A | -3.51 |
| C85A U109G | -1.33 |
| C85G G124A G133A | ≤ -4.2 |
| C85G C125A U130C | -1.52 |
| C85A G152U | -3.5 |
| C85U A89G | -2.67 |

| Variant | polymerase ribozyme fitness (log ratio) |
| --- | --- |
| C85G C149U | -2.46 |
| C85A G92C G141A G143U | ≤ -4.2 |
| C85U A98C G117C | 0.631 |
| C85U G92U C125A G136C | -3.55 |
| C85U A107U | -3.65 |
| C85A C149U | -1.59 |
| C85A G124U | -1.9 |
| C85A G124C | -1.69 |
| C85U A98G | -0.688 |
| C85A G140A | -4.18 |
| C85A G140U | -3 |
| C85A C129G | -2.95 |
| C85G C99G C116G G136U | ≤ -4.2 |
| C85U C93G | -3.83 |
| C85U A97U A115U | -2.7 |
| C85U C105U A106C U135C G141A | -3.94 |
| C85U A122C | -1.06 |
| C85G G86A | -3.83 |
| C85U C87U U144G | 0.338 |
| C85U G117U | 0.675 |
| C85U G117A | 0.212 |
| C85U A115U G140A | -3.77 |
| C85A G117C | -1.3 |
| C85A G117A | -1.76 |

| Variant | polymerase ribozyme fitness (log ratio) |
| --- | --- |
| C85U A98C G124C | -1.37 |
| C85G U135C | -3.66 |
| C85G U135A | -3.38 |
| C85U G128A | -3.29 |
| C85U C87G C95G C131A U134G A147U | ≤ -4.2 |
| C85U A89U A119C | -0.895 |
| C85U G100U A121C G124A C125G G136A A142G G152U | ≤ -4.2 |
| C85G G92C A106C A120U A121G U134A | ≤ -4.2 |
| C85U G128U C131U | -2.93 |
| C85A G126A | -1.32 |
| C85G A106C G141C | -3.91 |
| C85G C87U U145A | -2.77 |
| C85U C95G C108U | ≤ -4.2 |
| C85G G94A C95G U135A | -3.95 |
| C85U G124U | -0.801 |
| C85G U144G | -1.75 |
| C85U A89U G126U U145G | -3.94 |
| C85G A122U C123A | -2.3 |
| C85G A106G | -2.59 |
| C85G G126A U146A | -1.79 |
| C85G C125U | -3.35 |
| C85U | -0.513 |
| C85G | -2.05 |
